# Results: patent US20140038834
# Experiments:
# [1] = system: dephosphorylated HPLC-purified bovine NfH (treated with alkaline phosphatase)
# [2] = system: HPLC-purified bovine NfH (phosphorylated)
substance,measurement,setting,value
"enterokinase (EK, EC 3.4.21.9, Roche, Cat No 11 334115001)","limited proteolysis, cleavage products seen by immunoblot",[1],"The described in vivo cleavage products can be reproduced in vitro by incubation of purified NfH with enterokinase (FIG. 2D, lane 4 and FIG. 2E, lane 8)"
same,"limited proteolysis, cleavage products seen by immunoblot",[2],"The described in vivo cleavage products can be reproduced in vitro by incubation of purified NfH with enterokinase (FIG. 2D, lane 4 and FIG. 2E, lane 8)"
